From the supplement of paper PMC6757056
± gives the standard deviation of the averaged measurements.

B1: library; a variant is named by its letters at N, in order (parent)
chain: GCUGUCACCGAGAAACUGUGAAGUAUAUCUUAAACCUGGGCACUUAAAAGAUAUAUGGAGUUAGUAGUGCAACCUGCUCGGUCUGAUGAGUCCNNNNNNGGACGAAACAGC

What was measured:
cyclic di-GMP [1] = variants of: B1; test: FACS-Seq fitted mean relative fluorescence mCherry/BFP without ligand (log10 relative fluorescence); HEK293T; ligand: cyclic di-GMP (c-di-GMP-II aptamer); higher = higher reporter protein expression; conditions: ligand present: no
In short: (§1)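 Fluorescence figures are normalized fitted normal means of sequenced bin counts. Enriched, lentivirally transduced HEK293T libraries with a ribozyme-switch mCherry reporter and EF1α-BFP were held 48 h with or without ligand, then sorted into 6 mCherry/BFP bins. PCR-amplified, barcoded genomic DNA from each bin was sequenced on MiSeq. Means of log10(mCherry/BFP) were scaled to five spiked-in control ribozymes.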

cyclic di-GMP [2] = variants of: B1; test: normalized RNA/DNA level without ligand (relative to sTRSVctl = 100) (log10 (% of sTRSVctl)); HEK293T; ligand: cyclic di-GMP (c-di-GMP-II aptamer); higher = less ribozyme self-cleavage, higher mRNA level; conditions: reporter: mCherry (pCS4076), ligand present: no
In short: (§2)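 Library plasmids carrying ribozyme switches linked to mCherry, or to eGFP in some ligand experiments, were transfected into HEK293T at 4 µg per 6-well well, with any ligand added 1 h earlier. Seventy-two hours on, total RNA was extracted with EDTA and reverse-transcribed, amplified, barcoded and sequenced. RNA level was RNA over DNA reads normalized to a spiked-in non-cleaving sequence or to the top sequences, then scaled and log-transformed. The top set was 25 sequences, the transform was ×100 and log10, and sequences needed ≥100 DNA reads.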

cyclic di-GMP [3] = variants of: B1; test: FACS-Seq fitted mean relative fluorescence mCherry/BFP with ligand (log10 relative fluorescence); HEK293T; ligand: cyclic di-GMP (c-di-GMP-II aptamer); ligand concentration (+) FACS-Seq: 1 mM; higher = higher reporter protein expression; conditions: ligand present: yes
In short: as §1

cyclic di-GMP [4] = variants of: B1; test: normalized RNA/DNA level with ligand (relative to sTRSVctl = 100) (log10 (% of sTRSVctl)); HEK293T; ligand: cyclic di-GMP (c-di-GMP-II aptamer); ligand concentration (+) RNA-Seq: 1 mM; higher = less ribozyme self-cleavage, higher mRNA level; conditions: reporter: mCherry (pCS4076), ligand present: yes
In short: as §2

Variant	FACS-Seq fitted mean (log10) (cyclic di-GMP [1])	normalized RNA/DNA level without ligand (log10) (cyclic di-GMP [2])	FACS-Seq fitted mean (log10) (cyclic di-GMP [3])	normalized RNA/DNA level with ligand (log10) (cyclic di-GMP [4])
AGGAUG	-0.151 ± 0.021	1.48 ± 0.054	-0.029 ± 0.059	1.63 ± 0.16
AGGAUC	-0.0729 ± 0.071	1.63 ± 0.023	0.137 ± 0.019	1.78 ± 0.1
AGGAUA	-0.5971 ± 0.0057	1.34 ± 0.12	-0.199 ± 0.011	1.49 ± 0.018
GGGGGC	-0.722 ± 0.011	1.77 ± 0.043	-0.503 ± 0.012	1.87 ± 0.12
AGAAGA	-0.764 ± 0.056	1.36 ± 0.023	-0.515 ± 0.035	1.57 ± 0.14
AGAAGG	-0.204 ± 0.074	1.5 ± 0.072	0.0586 ± 0.061	1.69 ± 0.064
AGCACG	-0.192 ± 0.0049	1.61 ± 0.036	0.065 ± 0.026	1.77 ± 0.13
AGCACU	0.129 ± 0.16	1.7 ± 0.023	0.4 ± 0.012	1.82 ± 0.12
AGGUAA	-0.299 ± 0.023	1.43 ± 0.034	-0.0992 ± 0.054	1.56 ± 0.17
AGCAAU	-0.834 ± 0.048	1.74 ± 0.037	-0.638 ± 0.037	1.87 ± 0.16
AGCAAA	-0.531 ± 0.032	1.48 ± 0.042	-0.277 ± 0.1	1.64 ± 0.14
AGGCUU	0.2 ± 0.22	1.655 ± 0.015	0.371 ± 0.029	1.85 ± 0.1
UGAAAU	-0.0172 ± 0.1	1.66 ± 0.043	0.368 ± 0.014	1.84 ± 0.14
CGAGAU	-0.412 ± 0.057	1.52 ± 0.064	-0.0533 ± 0.042	1.76 ± 0.11
CGAGAA	0.00961 ± 0.085	1.35 ± 0.15	0.126 ± 0.031	1.55 ± 0.037
CGGUAU	-0.696 ± 0.0075	1.35 ± 0.14	-0.413 ± 0.0071	1.51 ± 0.14
CGGUAA	-0.662 ± 0.021	1.19 ± 0.052	-0.41 ± 0.069	1.28 ± 0.087
CGGUAC	-0.413 ± 0.026	1.53 ± 0.13	-0.0971 ± 0.017	1.72 ± 0.086
